Results from US20220064691A1 (ABERA BIOSCIENCE, published 2022).

B1: GFPnb-SpyCatcher (VHH)
VHH: MVQLVESGGALVQPGGSLRLSCAASGFPVNRYSMRWYRQAPGKEREWVAGMSSAGDRSSYEDSVKGRFTISRDDARNTVYLQMNSLKPEDTAVYYCNVNVGFEYWGQGTQVTVSS
notes: also called GFPnb-SpC; GFPNanobody-SpyCatcher
B2: GFPnb-SpC EQ (VHH)
VHH: B1 VHH

Experiments:
ssTorA(3×)-MBP-SpT [1] = experiment: overview table of covalent ligation to inclusion bodies
ssTorA(3×)-MBP-SpT [2] = experiment: covalent coupling to inclusion bodies in PBS, 25 °C 2 h; SDS-PAGE and Coomassie staining
Procedure: The mixtures were incubated at 25° C. for 2h. The inclusion bodies were collected through centrifugation and resuspended in PBS.

| Binder | binding result (ssTorA(3×)-MBP-SpT [1]) | binding result (ssTorA(3×)-MBP-SpT [2]) |
| --- | --- | --- |
| B1 | binds |  |
| B2 |  | no binding (tested: 3.2 µM) |
